How the values were obtained:
USP8 MIT domain = experiment: Peptide-phage display-based deep mutational scanning (DMS), USP8 MIT domain; format: binding, human; details: bait USP8_MIT__P40818_1_142, sheet S3.B_ProP-PD_pairs
Experimental: The residues of these 16 amino acid-long wild-type peptides were substituted to all natural amino acid residues, except cysteine, in all positions (Supplementary Table S2A). The designed peptide sequences were reverse-translated to oligonucleotides optimized to the codon usage of E. coli. The required flanking regions (5´[…] and 3´[…]) were added for library construction. The library was generated as previously described.
Four rounds of phage selections were carried out using the second generation human disorderome library or the constructed deep mutational scanning library. At least three individual replicates were used for each bait protein. 10 µg of GST-tagged proteins or GST control (diluted in PBS from the stock of proteins kept in the purification elution buffer) were immobilized in 100 µL PBS on a 96-well MaxiSorp (Nunc) plate overnight at 4 °C. The plates were incubated with blocking buffer (with 0.5% BSA in PBS) for 1 h at 4 °C followed by washing with 0.05% Tween 20 in PBS four times. The naïve phage library (10^11 CFU) was diluted in 1/5th volume PEG/NaCl (20% PEG-8000, 0.4 M NaCl) and 1X PBS, incubated on ice for 10 min and centrifuged at 10,000 [drawing 3] g for 10 min. The pellet was resuspended in the volume of PBS (100 µL/ well). The GST-coated control plate was incubated with 100 µL library per well in PBS for 1 h at 4 °C to remove non-specific binders. The supernatant was transferred to the target wells and incubated for 2 h at 4 °C. The wells were washed five times with 0.05% Tween 20 in PBS and the bound phages were eluted with 100 µL per well log-phase E. coli OmniMAX by incubating at 37° C while shaking. After 30 min, M13KO7 helper phages were added and incubated for an additional 45 min. The bacterial cultures were transferred to 1 mL 2YT supplemented with 100 µg/mL carbenicillin, 30 µg/mL kanamycin and 0.3 mM IPTG and grew overnight at 37 °C while shaking. The following day the cultures were centrifuged for 10 min at 2,000 [drawing 4] g, 4 °C. 1/10th volume of 10 [drawing 5] PBS was added to adjust the pH and heated at 65 °C for 10 min. The phage pools from each round were used as in-phages for the next round of selections.
The samples were prepared for NGS as previously described. Peptide-coding regions of the enriched phage pools were amplified and barcoded using Phusion High-Fidelity PCR Master Mix (Thermo Fisher) for 22 cycles and confirmed by 2% agarose gel electrophoresis. The PCR products were normalized with 25 µL Mag-bind Total Pure NGS beads (Omega Biotek) and 10 µL of each eluted sample (Qiagen Elution Buffer) was pooled and cleaned-up with a PCR purification kit (Qiagen). The PCR product was confirmed by 2% agarose electrophoresis and the band was extracted with QIAquick Gel extraction Kit (Qiagen) and eluted with 30 µL TE buffer. The dsDNA was quantified using QuantiT PicoGreen dsDNA Assay Kit (Thermo Fisher) and sent for NGS (Illumina MiSeq v3, 1 × 150 bp read setup, 20% PhiX, NGI SciLifeLab facility, Sweden). The NGS data were demultiplexed, adapter regions were trimmed and sequences with an average quality of at least 20 were translated to peptide sequences. The NGS data were analysed using custom Python scripts. The total read NGS counts for each selection experiment of each peptide sequence were compiled and annotated in PepTools (https://slim.icr.ac.uk/tools/peptools/). Since ProP-PD is in essence a competition assay, the possibility of the input phage library influencing the selection outcome was explored. For this, the Pearson correlation coefficient, p-value and coefficient of determination were calculated for all peptide NGS count fractions in the library coverage vs. in the selections results (Supplementary Fig. S7; Supplementary Table S2B; Supplementary Table S3B; Supplementary Table S7B). Pearson correlation coefficient and p-value were calculated using Python’s SciPy library. […]

USP8 Rhod domain = target: T1, USP8 Rhod domain (Homo sapiens, UniProt P40818); experiment: Peptide-phage display-based deep mutational scanning (DMS), USP8 Rhod domain; format: binding; details: PSSM, library USP8_DMS, days 2,3
T1 construct: USP8 Rhod (174–317) (UniProt: P40818); GST (cleaved yes); made in house; host or cells: Escherichia coli BL21-Gold (DE3)
T1 sequence (P40818 174-317): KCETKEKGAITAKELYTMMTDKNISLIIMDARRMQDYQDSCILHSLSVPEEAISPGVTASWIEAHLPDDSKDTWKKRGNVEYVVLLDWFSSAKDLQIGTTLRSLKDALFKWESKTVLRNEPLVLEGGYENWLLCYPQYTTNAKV

[1] = EFCAB12 (Q6NXP0) 2-17, pair of mutant with wild-type wt_00016 (MDDDYEAYHSLFLSLL)
[2] = ratio within the wild-type/mutant pair, larger over smaller averaged fraction (direction from fraction_wt and fraction_mut)

enrichment_relative_to_wt at position 7 (wt G) (USP8 Rhod domain) | proportion of amino acid at position 7 (wt G) (USP8 Rhod domain) | Substance | hit_pair_ratio (USP8 MIT domain; [1]) | also measured
 |  | ADDDYEAYHSLFLSLL [mut_04321] | 112.64 | 
 |  | AEVSDIESRIAALRAA |  | hit_pair_ratio (USP8 MIT domain; [2]): 40.88
 |  | DDDDYEAYHSLFLSLL [mut_04322] | 1.56 | 
 |  | EDDDYEAYHSLFLSLL [mut_04323] | 6.98 | 
 |  | EEVSDIESRIAALRAA |  | hit_pair_ratio (USP8 MIT domain; [2]): 7.79
 |  | FDDDYEAYHSLFLSLL [mut_04324] | 112.64 | 
 |  | FEVSDIESRIAALRAA |  | hit_pair_ratio (USP8 MIT domain; [2]): 3.72
 |  | GDDDYEAYHSLFLSLL [mut_04325] | 7.04 | 
 |  | HDDDYEAYHSLFLSLL [mut_04326] | 42.37 | 
 |  | IDDDYEAYHSLFLSLL [mut_04327] | 43.89 | 
1.36 | 0.02 | KIAA1614_Q5VZ46_569_584 G7E (MERVLGELSSPLRLLP; UniProt Q5VZ46 569-584, looked up, variant G7E) |  | 
3 | 0.0448 | KIAA1614_Q5VZ46_569_584 G7F (MERVLGFLSSPLRLLP; UniProt Q5VZ46 569-584, looked up, variant G7F) |  | 
-7.58 | 0.00204 | KIAA1614_Q5VZ46_569_584 G7H (MERVLGHLSSPLRLLP; UniProt Q5VZ46 569-584, looked up, variant G7H) |  | 
-2.84 | 0.00545 | KIAA1614_Q5VZ46_569_584 G7I (MERVLGILSSPLRLLP; peptide 569-584; UniProt Q5VZ46 569-584, looked up, variant G7I) |  | 
-96 | 0.000161 | KIAA1614_Q5VZ46_569_584 G7K (MERVLGKLSSPLRLLP; peptide 569-584; UniProt Q5VZ46 569-584, looked up, variant G7K) |  | 
-3 | 0.00507 | KIAA1614_Q5VZ46_569_584 G7L (MERVLGLLSSPLRLLP; UniProt Q5VZ46 569-584, looked up, variant G575L) |  | 
1.89 | 0.03 | KIAA1614_Q5VZ46_569_584 G7Q (MERVLGQLSSPLRLLP; UniProt Q5VZ46 569-584, looked up, variant G7Q) |  | 
-19 | 0.000822 | KIAA1614_Q5VZ46_569_584 G7R (MERVLGRLSSPLRLLP; UniProt Q5VZ46 569-584, looked up, variant G7R) |  | 
-1.8 | 0.0086 | KIAA1614_Q5VZ46_569_584 G7S (MERVLGSLSSPLRLLP; UniProt Q5VZ46 569-584, looked up, variant G7S) |  | 
30 | 0.46 | KIAA1614_Q5VZ46_569_584 G7T (MERVLGTLSSPLRLLP; peptide 569-584; UniProt Q5VZ46 569-584, looked up, variant G7T) |  | 
-172 | 8.98e-5 | KIAA1614_Q5VZ46_569_584 G7W (MERVLGWLSSPLRLLP; UniProt Q5VZ46 569-584, looked up, variant G7W) |  | 
-2 | 0.00809 | KIAA1614_Q5VZ46_569_584 G7Y (MERVLGYLSSPLRLLP; peptide 569-584; UniProt Q5VZ46 569-584, looked up, variant G7Y) |  | 
 |  | KIAA1614_Q5VZ46_569_584 L15A (MERVLGGLSSPLRLAP; UniProt Q5VZ46 569-584, looked up, variant L15A) |  | enrichment_relative_to_wt at position 15 (wt L) (USP8 Rhod domain; position 15): -207; proportion of amino acid at position 15 (wt L) (USP8 Rhod domain; position 15): 0.00469

— PMC12057046, “Elucidation of short linear motif-based interactions of the MIT and rhodanese domains of the ubiquitin-specific protease 8” (Biology Direct, 2025)
